In patent publication US20250092100A1:

Assays:
[1] = target: HA-tagged Ran (UniProt P62826); test: co-immunoprecipitation in tsA-201 cells, HA antibody pull-down of HA-Ran, anti-FLAG Western blot quantified
[2] = target: GST-Ran (UniProt P62826); test: GST pull-down, GST-Ran bait, lysate of tsA201 cells with FLAG-MOG1 as prey, anti-FLAG Western blot quantified

reduction of binding to Ran compared with the wild-type MOG1 [1]: 92% | reduction of binding to Ran compared with the wild-type MOG1 [2]: 95%
Substance: E50K MOG1 mutant tagged with FLAG (from UniProt Q9HD47 1-186)
